# From the supplement of paper PMC6757056
# ± gives the standard deviation of the averaged measurements.
# B1: library; a variant is named by its letters at N, in order (parent)
# chain: GCUGUCACCGGAAUACCAGCAUCGUCUUGAUGCCCUUGGAAGUCCGGUCUGAUGAGUCCNNNNNGGACGAAACAGC
# B2: library; a variant is named by its letters at N, in order (parent)
# chain: GCUGUCACCGGUGUAUUACCCUAGUGGUCGACCGGUCUGAUGAGUCUNNNNNNAGACGAAACAGC
# Experiments:
# theophylline [1] = variants of: B1; assay: FACS-Seq fitted mean relative fluorescence mCherry/BFP without ligand (log10 relative fluorescence); higher = higher reporter protein expression; conditions: HEK293T, ligand present: no
# Outline: (§1)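 After lentiviral transduction, HEK293T library cells bearing an mCherry ribozyme-switch reporter and an EF1α-BFP marker were enriched. They were then held for 48 h with or without ligand and sorted by mCherry/BFP into 6 bins, and each bin's genomic DNA was PCR-amplified, barcoded and MiSeq-sequenced. Fluorescence is expressed as a normalized fitted mean: the normal mean of log10(mCherry/BFP) bin counts, scaled to five spiked-in control ribozymes.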
# theophylline [2] = variants of: B1; assay: normalized RNA/DNA level with ligand (relative to sTRSVctl = 100) (log10 (% of sTRSVctl)); higher = less ribozyme self-cleavage, higher mRNA level; conditions: ligand concentration (+) RNA-Seq: 5 mM, HEK293T, reporter: mCherry (pCS4076), ligand present: yes
# Outline: (§2)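 RNA level was computed as RNA reads over DNA reads divided by a spiked-in non-cleaving sequence or by the top sequences, then scaled and log-transformed. Scaling was ×100 with log10, the top group was 25 sequences, and the threshold was ≥100 DNA reads. The reads came from HEK293T cells transfected at 4 µg per 6-well well with ribozyme switch library plasmids (mCherry, or eGFP in some ligand experiments). Total RNA was extracted with EDTA 72 h after transfection, with any ligand added 1 h before it.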
# theophylline [3] = variants of: B1; assay: normalized RNA/DNA level without ligand (relative to sTRSVctl = 100) (log10 (% of sTRSVctl)); higher = less ribozyme self-cleavage, higher mRNA level; conditions: HEK293T, reporter: mCherry (pCS4076), ligand present: no
# Outline: as §2
# theophylline [4] = variants of: B1; assay: FACS-Seq fitted mean relative fluorescence mCherry/BFP with ligand (log10 relative fluorescence); ligand concentration (+) FACS-Seq: 1 mM; higher = higher reporter protein expression; conditions: HEK293T, ligand present: yes
# Outline: as §1
# hypoxanthine [5] = variants of: B2; assay: FACS-Seq fitted mean relative fluorescence mCherry/BFP without ligand (log10 relative fluorescence); ligand: hypoxanthine (xanthine aptamer); higher = higher reporter protein expression; conditions: HEK293T, ligand present: no
# Description: (§3)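 Hammerhead (sTRSV) ribozyme switch libraries with a ligand aptamer grafted on stem I and a randomized N4-6 loop II, cloned into the 3' UTR of mCherry and transiently transfected into HEK293T cells; RNA-Seq 72 h post transfection with ligand added 1 h before transfection; RNA read count / plasmid DNA read count normalized to the non-cleaving sTRSVctl (x100), log10; sequences with >100 DNA reads. FACS-Seq: lentiviral library sorted into 6 bins after 48 h ligand, log-normal fit mean of mCherry/BFP scaled to controls. Printed sequences are partial switch sequences.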
# hypoxanthine [6] = variants of: B2; assay: normalized RNA/DNA level with ligand (relative to sTRSVctl = 100) (log10 (% of sTRSVctl)); ligand: hypoxanthine (xanthine aptamer); higher = less ribozyme self-cleavage, higher mRNA level; conditions: ligand concentration (+) RNA-Seq: 5 mM, HEK293T, reporter: mCherry (pCS4076), ligand present: yes
# Description: as §3
# hypoxanthine [7] = variants of: B2; assay: normalized RNA/DNA level without ligand (relative to sTRSVctl = 100) (log10 (% of sTRSVctl)); ligand: hypoxanthine (xanthine aptamer); higher = less ribozyme self-cleavage, higher mRNA level; conditions: HEK293T, reporter: mCherry (pCS4076), ligand present: no
# Description: as §3
# hypoxanthine [8] = variants of: B2; assay: FACS-Seq fitted mean relative fluorescence mCherry/BFP with ligand (log10 relative fluorescence); ligand: hypoxanthine (xanthine aptamer); ligand concentration (+) FACS-Seq: 5 mM; higher = higher reporter protein expression; conditions: HEK293T, ligand present: yes
# Description: as §3
Variant,FACS-Seq fitted mean (log10) (theophylline [1]),normalized RNA/DNA level with ligand (log10) (theophylline [2]),normalized RNA/DNA level without ligand (log10) (theophylline [3]),FACS-Seq fitted mean (log10) (theophylline [4]),FACS-Seq fitted mean (log10) (hypoxanthine [5]),normalized RNA/DNA level with ligand (log10) (hypoxanthine [6]),normalized RNA/DNA level without ligand (log10) (hypoxanthine [7]),FACS-Seq fitted mean (log10) (hypoxanthine [8])
AGCAC,0.712 ± 0.13,2.08 ± 0.088,1.91 ± 0.12,0.669 ± 0.012,,,,
UCUGG,0.976 ± 0.062,2.057 ± 0.0087,2.01 ± 0.064,1.012 ± 0.0062,,,,
AGCGC,0.459 ± 0.1,2.058 ± 0.016,1.98 ± 0.047,0.52 ± 0.18,,,,
UAAAGG,,,,,0.355 ± 0.035,1.84 ± 0.023,1.45 ± 0.05,0.675 ± 0.094
UAAAGU,,,,,0.334 ± 0.017,1.89 ± 0.05,1.54 ± 0.076,0.708 ± 0.063
UAAAGC,,,,,0.687 ± 0.044,1.92 ± 0.024,1.799 ± 0.0067,0.694 ± 0.029
CAAAAA,,,,,0.52 ± 0.1,1.9 ± 0.04,1.74 ± 0.025,0.526 ± 0.038
CAAAAG,,,,,0.0525 ± 0.066,1.87 ± 0.026,1.59 ± 0.038,0.174 ± 0.031
CAAAAC,,,,,0.248 ± 0.079,1.9 ± 0.035,1.78 ± 0.028,0.0907 ± 0.058
AAACAU,,,,,0.519 ± 0.022,1.86 ± 0.028,1.762 ± 0.0068,0.664 ± 0.099
AAACAA,,,,,0.4127 ± 0.0021,1.902 ± 0.011,1.73 ± 0.022,0.382 ± 0.014
AAACAG,,,,,-0.248 ± 0.031,1.77 ± 0.058,1.35 ± 0.055,0.234 ± 0.03
UAACGC,,,,,0.329 ± 0.043,1.92 ± 0.058,1.74 ± 0.031,0.365 ± 0.011
UAACGA,,,,,0.432 ± 0.054,1.91 ± 0.033,1.6909 ± 0.0004,0.324 ± 0.072
GAACCA,,,,,0.493 ± 0.094,1.948 ± 0.018,1.816 ± 0.014,0.365 ± 0.0063
GAACCG,,,,,0.156 ± 0.11,1.9 ± 0.08,1.48 ± 0.052,0.296 ± 0.017
AAACGA,,,,,0.38 ± 0.042,1.908 ± 0.0036,1.63 ± 0.046,0.5899 ± 0.0039
AAACGG,,,,,0.034 ± 0.0048,1.73 ± 0.061,1.23 ± 0.082,0.486 ± 0.027

Variant,FACS-Seq fitted mean (log10) (theophylline [1]),normalized RNA/DNA level with ligand (log10) (theophylline [2]),normalized RNA/DNA level without ligand (log10) (theophylline [3]),FACS-Seq fitted mean (log10) (theophylline [4]),FACS-Seq fitted mean (log10) (hypoxanthine [5]),normalized RNA/DNA level with ligand (log10) (hypoxanthine [6]),normalized RNA/DNA level without ligand (log10) (hypoxanthine [7]),FACS-Seq fitted mean (log10) (hypoxanthine [8])
UAACAG,,,,,0.366 ± 0.019,1.849 ± 0.012,1.5574 ± 0.00043,0.581 ± 0.031
UAACAA,,,,,-0.143 ± 0.032,1.9154 ± 0.0012,1.7546 ± 0.00028,-0.012 ± 0.012
AAAACU,,,,,0.313 ± 0.03,1.91 ± 0.093,1.8616 ± 0.00097,0.4 ± 0.12
AAAACA,,,,,0.709 ± 0.064,1.897 ± 0.015,1.804 ± 0.015,0.65 ± 0.023
AAAACG,,,,,0.284 ± 0.015,1.85 ± 0.053,1.43 ± 0.017,0.616 ± 0.077
AAAAUU,,,,,0.401 ± 0.01,1.93 ± 0.04,1.86 ± 0.041,0.491 ± 0.064
AAAAUG,,,,,0.362 ± 0.024,1.857 ± 0.017,1.51 ± 0.044,0.671 ± 0.053
AAAAAG,,,,,0.286 ± 0.03,1.841 ± 0.013,1.52 ± 0.036,0.588 ± 0.046
AAAAAU,,,,,0.418 ± 0.0049,1.9 ± 0.06,1.74 ± 0.023,0.55 ± 0.021
AAAAAA,,,,,0.738 ± 0.02,1.9 ± 0.042,1.8 ± 0.033,0.664 ± 0.03
UAAAAA,,,,,0.315 ± 0.015,1.905 ± 0.019,1.784 ± 0.00081,0.22 ± 0.0062
UAAAAU,,,,,0.434 ± 0.055,1.89 ± 0.071,1.76 ± 0.0046,0.454 ± 0.039
UAAAAC,,,,,0.723 ± 0.03,1.914 ± 0.0064,1.826 ± 0.0019,0.769 ± 0.068
GAAAGC,,,,,0.368 ± 0.056,1.86 ± 0.028,1.39 ± 0.084,0.776 ± 0.043
GAAAGU,,,,,0.233 ± 0.011,1.91 ± 0.022,1.752 ± 0.0063,0.17 ± 0.018
GAAAGG,,,,,0.141 ± 0.013,1.74 ± 0.029,1.2 ± 0.07,0.614 ± 0.017
GAAAGA,,,,,0.507 ± 0.093,1.92 ± 0.029,1.71 ± 0.033,0.581 ± 0.065
GAACGG,,,,,-0.137 ± 0.019,1.74 ± 0.081,1.22 ± 0.085,0.484 ± 0.059
